Legend:
Assay in all cases: IP/MS, LZTR1 wild type-FLAG, U87
[1] = target: T1, PARP10 (human, UniProt Q53GL7 1-1025)
T1 sequence (looked up): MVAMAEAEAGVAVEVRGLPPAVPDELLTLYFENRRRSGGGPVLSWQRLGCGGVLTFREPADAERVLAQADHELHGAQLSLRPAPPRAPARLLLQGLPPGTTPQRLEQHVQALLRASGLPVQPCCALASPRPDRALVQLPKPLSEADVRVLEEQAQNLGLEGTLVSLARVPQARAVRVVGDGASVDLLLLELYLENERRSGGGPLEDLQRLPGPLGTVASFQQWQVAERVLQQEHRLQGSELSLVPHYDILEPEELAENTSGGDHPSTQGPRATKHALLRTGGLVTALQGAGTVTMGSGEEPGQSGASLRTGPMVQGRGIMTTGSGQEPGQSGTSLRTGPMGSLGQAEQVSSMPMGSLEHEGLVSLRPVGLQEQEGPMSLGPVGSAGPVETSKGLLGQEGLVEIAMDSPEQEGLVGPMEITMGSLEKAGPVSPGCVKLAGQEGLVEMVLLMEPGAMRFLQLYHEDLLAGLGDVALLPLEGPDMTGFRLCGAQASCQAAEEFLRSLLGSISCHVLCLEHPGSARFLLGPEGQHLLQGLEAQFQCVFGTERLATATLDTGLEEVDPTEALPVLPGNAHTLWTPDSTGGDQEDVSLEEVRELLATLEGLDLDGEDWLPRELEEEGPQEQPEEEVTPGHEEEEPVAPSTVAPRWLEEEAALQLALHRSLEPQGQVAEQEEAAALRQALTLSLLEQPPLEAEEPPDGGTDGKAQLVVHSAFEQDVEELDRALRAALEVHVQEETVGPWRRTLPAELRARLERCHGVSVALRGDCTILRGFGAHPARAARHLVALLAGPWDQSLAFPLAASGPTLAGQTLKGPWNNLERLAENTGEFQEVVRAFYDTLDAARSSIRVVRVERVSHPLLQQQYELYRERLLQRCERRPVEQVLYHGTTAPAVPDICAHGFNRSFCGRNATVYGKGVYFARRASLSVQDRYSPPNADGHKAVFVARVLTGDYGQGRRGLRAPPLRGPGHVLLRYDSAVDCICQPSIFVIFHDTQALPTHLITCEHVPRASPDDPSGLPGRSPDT
How it was run: (§1)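 Extracted peptides in 3% acetonitrile/0.1% formic acid ran on a 50 cm C18 column into an Orbitrap Fusion, with MaxQuant identification and spectral counting.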

[2] = target: T2, NCAPG2 (human, UniProt Q86XI2 1-1143, limits assumed)
T2 sequence (looked up): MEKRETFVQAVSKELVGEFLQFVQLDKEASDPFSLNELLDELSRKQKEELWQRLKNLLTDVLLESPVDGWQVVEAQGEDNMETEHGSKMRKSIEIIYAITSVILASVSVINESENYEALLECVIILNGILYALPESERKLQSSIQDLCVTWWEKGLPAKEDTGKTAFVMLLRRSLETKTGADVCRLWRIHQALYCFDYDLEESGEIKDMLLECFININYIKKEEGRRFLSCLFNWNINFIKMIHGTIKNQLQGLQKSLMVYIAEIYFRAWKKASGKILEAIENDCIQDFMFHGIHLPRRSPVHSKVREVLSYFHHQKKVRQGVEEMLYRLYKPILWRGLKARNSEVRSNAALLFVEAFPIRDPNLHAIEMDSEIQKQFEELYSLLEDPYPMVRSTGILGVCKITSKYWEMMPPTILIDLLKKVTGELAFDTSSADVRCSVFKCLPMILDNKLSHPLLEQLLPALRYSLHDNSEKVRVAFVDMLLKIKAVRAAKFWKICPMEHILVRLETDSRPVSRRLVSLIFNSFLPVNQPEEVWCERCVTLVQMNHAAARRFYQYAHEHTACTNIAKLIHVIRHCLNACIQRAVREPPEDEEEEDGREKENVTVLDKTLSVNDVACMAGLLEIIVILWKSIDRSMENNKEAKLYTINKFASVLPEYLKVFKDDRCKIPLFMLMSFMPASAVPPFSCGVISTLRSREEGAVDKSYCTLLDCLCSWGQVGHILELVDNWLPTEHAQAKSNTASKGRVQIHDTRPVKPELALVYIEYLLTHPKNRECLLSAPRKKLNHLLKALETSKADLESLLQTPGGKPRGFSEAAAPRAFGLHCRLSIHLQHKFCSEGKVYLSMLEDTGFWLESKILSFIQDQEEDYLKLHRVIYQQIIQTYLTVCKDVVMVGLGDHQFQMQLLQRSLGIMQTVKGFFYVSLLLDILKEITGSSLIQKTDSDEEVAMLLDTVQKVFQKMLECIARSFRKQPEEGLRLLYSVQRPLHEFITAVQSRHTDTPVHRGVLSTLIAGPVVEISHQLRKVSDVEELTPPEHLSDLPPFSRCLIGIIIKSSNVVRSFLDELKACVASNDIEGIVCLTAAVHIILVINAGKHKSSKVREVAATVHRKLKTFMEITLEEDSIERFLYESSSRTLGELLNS
How it was run: as §1

[3] = target: CDC42BPB (human, UniProt Q9Y5S2 1-1711)
How it was run: as §1

[4] = target: SKIV2L (human, UniProt Q15477 1-1246)
How it was run: as §1

[5] = target: MYO10 (human, UniProt Q9HD67 1-2058, limits assumed)
How it was run: as §1

Chain of SKIV2L (Q15477 whole entry): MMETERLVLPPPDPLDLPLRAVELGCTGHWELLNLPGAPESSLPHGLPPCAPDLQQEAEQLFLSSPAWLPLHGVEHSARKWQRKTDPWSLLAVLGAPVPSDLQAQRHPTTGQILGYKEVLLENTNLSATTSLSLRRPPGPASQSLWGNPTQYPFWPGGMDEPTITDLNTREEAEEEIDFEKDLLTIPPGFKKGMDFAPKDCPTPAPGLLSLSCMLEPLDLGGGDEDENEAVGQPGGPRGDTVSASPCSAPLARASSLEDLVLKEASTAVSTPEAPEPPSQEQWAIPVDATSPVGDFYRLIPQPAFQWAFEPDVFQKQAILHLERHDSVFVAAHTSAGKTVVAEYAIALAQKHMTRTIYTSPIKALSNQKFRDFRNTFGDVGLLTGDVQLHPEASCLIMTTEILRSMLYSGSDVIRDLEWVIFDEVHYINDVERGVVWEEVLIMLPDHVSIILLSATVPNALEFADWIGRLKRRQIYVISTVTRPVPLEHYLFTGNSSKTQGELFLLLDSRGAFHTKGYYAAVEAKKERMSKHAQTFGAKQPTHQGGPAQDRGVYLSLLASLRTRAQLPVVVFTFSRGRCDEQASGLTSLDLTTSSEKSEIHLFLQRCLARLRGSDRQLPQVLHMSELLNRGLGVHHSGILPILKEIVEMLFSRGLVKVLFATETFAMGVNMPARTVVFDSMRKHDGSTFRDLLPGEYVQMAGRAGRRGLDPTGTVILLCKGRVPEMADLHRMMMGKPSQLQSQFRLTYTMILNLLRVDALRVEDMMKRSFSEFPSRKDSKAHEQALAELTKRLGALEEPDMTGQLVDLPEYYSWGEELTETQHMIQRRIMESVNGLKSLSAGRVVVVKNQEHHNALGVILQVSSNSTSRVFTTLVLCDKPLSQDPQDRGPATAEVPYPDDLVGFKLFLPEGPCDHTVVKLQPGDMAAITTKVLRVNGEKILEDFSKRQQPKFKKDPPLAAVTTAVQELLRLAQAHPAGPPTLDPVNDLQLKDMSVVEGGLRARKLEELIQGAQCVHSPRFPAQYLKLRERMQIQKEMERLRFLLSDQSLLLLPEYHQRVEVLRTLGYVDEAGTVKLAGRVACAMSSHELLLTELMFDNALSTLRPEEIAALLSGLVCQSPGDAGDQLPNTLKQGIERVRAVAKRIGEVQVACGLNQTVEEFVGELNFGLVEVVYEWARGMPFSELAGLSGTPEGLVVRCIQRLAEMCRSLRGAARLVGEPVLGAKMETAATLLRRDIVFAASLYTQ
Chain of CDC42BPB (Q9Y5S2 whole entry): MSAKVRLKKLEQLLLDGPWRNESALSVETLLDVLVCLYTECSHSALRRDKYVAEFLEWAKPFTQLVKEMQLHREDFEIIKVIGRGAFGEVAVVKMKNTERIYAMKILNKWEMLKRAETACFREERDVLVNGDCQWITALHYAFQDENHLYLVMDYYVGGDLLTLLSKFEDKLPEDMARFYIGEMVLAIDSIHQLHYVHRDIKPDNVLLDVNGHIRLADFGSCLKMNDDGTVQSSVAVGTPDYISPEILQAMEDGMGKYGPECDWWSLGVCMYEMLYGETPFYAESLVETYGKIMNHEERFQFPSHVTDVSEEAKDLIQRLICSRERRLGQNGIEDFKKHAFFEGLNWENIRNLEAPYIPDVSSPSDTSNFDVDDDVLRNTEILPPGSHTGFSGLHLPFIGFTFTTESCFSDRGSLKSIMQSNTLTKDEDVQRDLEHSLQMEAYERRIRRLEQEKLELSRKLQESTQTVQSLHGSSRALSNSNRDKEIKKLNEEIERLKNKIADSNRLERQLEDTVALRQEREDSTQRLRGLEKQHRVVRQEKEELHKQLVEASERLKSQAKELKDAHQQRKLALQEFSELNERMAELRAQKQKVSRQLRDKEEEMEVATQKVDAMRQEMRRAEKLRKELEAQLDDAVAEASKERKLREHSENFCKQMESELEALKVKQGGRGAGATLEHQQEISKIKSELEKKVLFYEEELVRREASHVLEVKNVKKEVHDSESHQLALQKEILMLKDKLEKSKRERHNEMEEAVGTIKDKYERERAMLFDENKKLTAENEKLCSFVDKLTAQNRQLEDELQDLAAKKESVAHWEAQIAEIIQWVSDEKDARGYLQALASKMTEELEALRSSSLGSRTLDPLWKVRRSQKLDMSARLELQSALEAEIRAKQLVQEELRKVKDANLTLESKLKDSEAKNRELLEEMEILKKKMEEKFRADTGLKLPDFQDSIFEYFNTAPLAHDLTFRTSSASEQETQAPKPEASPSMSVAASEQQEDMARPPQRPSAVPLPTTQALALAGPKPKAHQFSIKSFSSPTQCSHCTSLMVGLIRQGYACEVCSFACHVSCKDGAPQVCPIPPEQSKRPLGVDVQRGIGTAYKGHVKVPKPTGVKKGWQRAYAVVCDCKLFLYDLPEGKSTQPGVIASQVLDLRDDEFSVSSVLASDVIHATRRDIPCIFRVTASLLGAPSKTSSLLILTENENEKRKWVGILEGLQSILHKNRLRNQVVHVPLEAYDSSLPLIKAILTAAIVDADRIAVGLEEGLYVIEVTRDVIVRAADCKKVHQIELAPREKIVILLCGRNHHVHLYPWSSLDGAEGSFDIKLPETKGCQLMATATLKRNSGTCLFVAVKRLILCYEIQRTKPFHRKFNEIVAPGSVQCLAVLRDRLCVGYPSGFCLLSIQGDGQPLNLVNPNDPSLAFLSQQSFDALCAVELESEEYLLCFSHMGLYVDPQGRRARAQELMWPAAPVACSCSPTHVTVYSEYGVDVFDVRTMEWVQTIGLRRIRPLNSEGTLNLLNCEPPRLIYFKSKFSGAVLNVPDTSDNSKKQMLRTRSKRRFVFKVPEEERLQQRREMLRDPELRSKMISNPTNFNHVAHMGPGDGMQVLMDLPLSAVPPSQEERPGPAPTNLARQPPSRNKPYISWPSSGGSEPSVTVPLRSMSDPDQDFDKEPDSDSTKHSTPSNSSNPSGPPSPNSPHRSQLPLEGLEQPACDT
Chain of MYO10 (Q9HD67 whole entry): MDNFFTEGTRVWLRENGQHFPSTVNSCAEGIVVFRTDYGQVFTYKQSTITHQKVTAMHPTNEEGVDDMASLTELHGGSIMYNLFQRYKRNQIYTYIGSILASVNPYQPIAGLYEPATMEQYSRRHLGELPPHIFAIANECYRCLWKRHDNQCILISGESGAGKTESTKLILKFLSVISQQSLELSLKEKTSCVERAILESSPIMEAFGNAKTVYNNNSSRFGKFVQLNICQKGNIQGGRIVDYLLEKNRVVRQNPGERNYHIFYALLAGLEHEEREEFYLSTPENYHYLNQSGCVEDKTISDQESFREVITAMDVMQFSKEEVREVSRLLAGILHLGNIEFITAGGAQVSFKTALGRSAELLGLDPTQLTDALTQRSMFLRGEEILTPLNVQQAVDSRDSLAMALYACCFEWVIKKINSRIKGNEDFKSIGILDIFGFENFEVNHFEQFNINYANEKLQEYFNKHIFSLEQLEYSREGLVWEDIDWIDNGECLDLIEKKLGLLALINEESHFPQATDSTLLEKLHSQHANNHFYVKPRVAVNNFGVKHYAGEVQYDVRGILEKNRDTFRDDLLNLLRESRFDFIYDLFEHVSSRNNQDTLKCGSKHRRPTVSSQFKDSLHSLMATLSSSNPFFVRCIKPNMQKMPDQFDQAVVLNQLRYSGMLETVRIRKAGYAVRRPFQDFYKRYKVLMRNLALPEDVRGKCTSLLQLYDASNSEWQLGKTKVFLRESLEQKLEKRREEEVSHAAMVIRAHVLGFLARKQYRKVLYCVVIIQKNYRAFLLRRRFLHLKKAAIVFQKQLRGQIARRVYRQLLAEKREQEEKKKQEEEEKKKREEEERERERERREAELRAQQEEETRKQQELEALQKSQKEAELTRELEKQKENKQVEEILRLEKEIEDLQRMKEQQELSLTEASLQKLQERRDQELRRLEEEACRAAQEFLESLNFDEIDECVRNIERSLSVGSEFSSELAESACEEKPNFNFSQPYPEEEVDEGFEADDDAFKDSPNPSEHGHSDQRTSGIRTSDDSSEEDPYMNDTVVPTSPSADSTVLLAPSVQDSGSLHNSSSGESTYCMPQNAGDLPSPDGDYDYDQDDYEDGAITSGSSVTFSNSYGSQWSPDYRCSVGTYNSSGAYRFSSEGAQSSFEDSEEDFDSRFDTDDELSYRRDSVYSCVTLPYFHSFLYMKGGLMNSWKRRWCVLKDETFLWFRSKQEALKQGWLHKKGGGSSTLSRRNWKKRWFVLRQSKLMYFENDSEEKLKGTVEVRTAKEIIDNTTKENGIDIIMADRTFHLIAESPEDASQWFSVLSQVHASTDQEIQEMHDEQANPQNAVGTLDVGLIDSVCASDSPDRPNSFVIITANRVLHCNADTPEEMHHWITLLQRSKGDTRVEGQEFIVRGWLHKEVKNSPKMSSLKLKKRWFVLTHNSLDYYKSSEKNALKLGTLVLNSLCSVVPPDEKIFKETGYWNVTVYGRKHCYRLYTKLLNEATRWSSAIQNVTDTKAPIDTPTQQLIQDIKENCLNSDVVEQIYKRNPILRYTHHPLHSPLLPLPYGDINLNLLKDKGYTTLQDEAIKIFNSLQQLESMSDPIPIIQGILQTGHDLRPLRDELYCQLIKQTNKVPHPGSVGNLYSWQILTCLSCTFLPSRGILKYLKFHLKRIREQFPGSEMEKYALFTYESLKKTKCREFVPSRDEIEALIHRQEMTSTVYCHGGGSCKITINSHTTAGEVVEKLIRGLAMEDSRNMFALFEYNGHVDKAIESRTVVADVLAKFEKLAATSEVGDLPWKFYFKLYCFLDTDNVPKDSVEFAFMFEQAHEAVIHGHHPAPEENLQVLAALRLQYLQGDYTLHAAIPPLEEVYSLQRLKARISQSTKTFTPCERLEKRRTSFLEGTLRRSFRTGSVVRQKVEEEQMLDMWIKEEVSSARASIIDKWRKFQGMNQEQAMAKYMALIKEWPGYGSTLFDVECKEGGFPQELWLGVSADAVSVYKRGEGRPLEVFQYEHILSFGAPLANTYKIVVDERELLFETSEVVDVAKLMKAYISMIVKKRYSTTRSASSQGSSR

binding result [1]: binds
binding result [2]: binds
binding result [3]: binds
binding result [4]: binds
binding result [5]: binds
B1: LZTR1-FLAG (other, human, UniProt Q8N653 1-840, looked up)
chain: MAGPGSTGGQIGAAALAGGARSKVAPSVDFDHSCSDSVEYLTLNFGPFETVHRWRRLPPCDEFVGARRSKHTVVAYKDAIYVFGGDNGKTMLNDLLRFDVKDCSWCRAFTTGTPPAPRYHHSAVVYGSSMFVFGGYTGDIYSNSNLKNKNDLFEYKFATGQWTEWKIEGRLPVARSAHGATVYSDKLWIFAGYDGNARLNDMWTIGLQDRELTCWEEVAQSGEIPPSCCNFPVAVCRDKMFVFSGQSGAKITNNLFQFEFKDKTWTRIPTEHLLRGSPPPPQRRYGHTMVAFDRHLYVFGGAADNTLPNELHCYDVDFQTWEVVQPSSDSEVGGAEVPERACASEEVPTLTYEERVGFKKSRDVFGLDFGTTSAKQPTQPASELPSGRLFHAAAVISDAMYIFGGTVDNNIRSGEMYRFQFSCYPKCTLHEDYGRLWESRQFCDVEFVLGEKEECVQGHVAIVTARSRWLRRKITQARERLAQKLEQEAAPVPREAPGVAAGGARPPLLHVAIREAEARPFEVLMQFLYTDKIKYPRKGHVEDVLLIMDVYKLALSFQLCRLEQLCRQYIEASVDLQNVLVVCESAARLQLSQLKEHCLNFVVKESHFNQVIMMKEFERLSSPLIVEIVRRKQQPPPRTPLDQPVDIGTSLIQDMKAYLEGAGAEFCDITLLLDGHPRPAHKAILAARSSYFEAMFRSFMPEDGQVNISIGEMVPSRQAFESMLRYIYYGEVNMPPEDSLYLFAAPYYYGFYNNRLQAYCKQNLEMNVTVQNVLQILEAADKTQALDMKRHCLHIIVHQFTKVSKLPTLRSLSQQLLLDIIDSLASHISDKQCAELGADI
notes: Expressed in HEK 293T, HeLa or U87 cells; used as cell lysate; also called LZTR1 wild type-FLAG; LZTR1 WT; not shown: FLAG tag at the C-terminus

Reference: patent US20250262210A1 (TRUSTEES OF COLUMBIA UNIVERSITY IN THE CITY OF NEW YORK, published 2025)
